Reference: publication PMC5859130, “Ixonnexin from Tick Saliva Promotes Fibrinolysis by Interacting with Plasminogen and Tissue-Type Plasminogen Activator, and Prevents Arterial Thrombosis” (Scientific Reports, 2018)

Assays:
[1] = target: the molecule itself; assay: SEC; Superdex 75 10/300, 20 mM Tris-HCl, 0.15 M NaCl, pH 8, 0.5 mL/min; column calibrated with salivary proteins of known mass
[2] = target: T1, Lys-plasminogen (UniProt P00747 97-810); assay: SPR; Ixonnexin amine-coupled to a carboxymethylated dextran (CM5) chip, 726.2 RU; analytes injected 120 s at 30 µL/min, 25 °C, dissociation 600 s; global fit with the two-state (conformational change) model, Langmuir 1:1 for plasmin; conditions: both partners purified
T1 construct: source: bought: Enzyme Research Laboratories or Innovative Research

[3] = target: Factor Xa; assay: cell-based or functional assay
Sequence of Factor Xa (P00742 32-488): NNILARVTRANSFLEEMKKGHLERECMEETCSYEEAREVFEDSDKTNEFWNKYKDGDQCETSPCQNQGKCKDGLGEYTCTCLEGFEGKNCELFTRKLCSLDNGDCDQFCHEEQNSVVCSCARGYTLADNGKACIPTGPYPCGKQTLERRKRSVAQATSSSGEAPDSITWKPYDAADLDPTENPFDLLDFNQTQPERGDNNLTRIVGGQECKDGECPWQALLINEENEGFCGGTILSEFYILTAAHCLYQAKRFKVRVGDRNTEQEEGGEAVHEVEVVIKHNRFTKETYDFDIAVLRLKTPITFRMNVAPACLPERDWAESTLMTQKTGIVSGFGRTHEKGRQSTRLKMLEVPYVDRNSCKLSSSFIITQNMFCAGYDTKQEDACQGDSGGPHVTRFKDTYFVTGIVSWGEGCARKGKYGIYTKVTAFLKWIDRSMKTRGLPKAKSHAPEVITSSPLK

T1 sequence (P00747 97-810): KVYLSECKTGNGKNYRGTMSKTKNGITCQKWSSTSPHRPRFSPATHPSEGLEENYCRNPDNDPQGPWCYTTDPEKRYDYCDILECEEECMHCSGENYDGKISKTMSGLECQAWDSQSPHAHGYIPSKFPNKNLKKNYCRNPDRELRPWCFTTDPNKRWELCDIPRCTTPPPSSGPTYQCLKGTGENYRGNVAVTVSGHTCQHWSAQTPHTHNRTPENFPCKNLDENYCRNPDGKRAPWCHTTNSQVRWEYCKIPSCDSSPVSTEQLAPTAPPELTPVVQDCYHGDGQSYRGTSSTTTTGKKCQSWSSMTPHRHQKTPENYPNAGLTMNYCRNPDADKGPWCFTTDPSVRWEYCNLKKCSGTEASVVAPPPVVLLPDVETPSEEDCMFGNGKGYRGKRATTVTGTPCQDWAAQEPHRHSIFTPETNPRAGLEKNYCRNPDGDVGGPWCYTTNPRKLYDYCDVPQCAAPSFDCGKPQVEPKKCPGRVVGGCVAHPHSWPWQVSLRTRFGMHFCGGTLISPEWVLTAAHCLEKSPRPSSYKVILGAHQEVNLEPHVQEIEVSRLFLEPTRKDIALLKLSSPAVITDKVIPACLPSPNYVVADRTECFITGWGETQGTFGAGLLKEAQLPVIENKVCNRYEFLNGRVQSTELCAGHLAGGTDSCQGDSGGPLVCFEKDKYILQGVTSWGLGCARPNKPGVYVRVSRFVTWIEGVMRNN

B1: Ixonnexin (natural protein)
chain: HNCQNGTRPASEENREGCDYYCWNAETKSWDQFFFGNGERCFYNTGEKGTCLNGECHLTTSSGGPDDTGDNTPPPTEKPKQKKKKPKKTKKPKRKSKKDQKENF
notes: Ixonnexin, 'Basic-tail' family salivary protein of Ixodes scapularis (gi 67083505); the precursor has a signal peptide of 21 residues (cut between Ala21 and His22); the mature protein of 104 residues was synthesized; numbers count on: the mature protein; 3 disulfide bonds after folding; Gel filtration is consistent with a non-covalent dimer; mass spectrometry gave a single monomeric mass; also …
[1]
  stoichiometry N: 2
[2]
  Kd: 14.4 nM
[3]
  amidolytic activity of FXa (0.33 nM) on a fluorogenic substrate, enhanced by Ixonnexin: IC50: 9.73 nM
